Laboratory results reported in US20040258659A1.

Target: CCR5 (UniProt P51681)
Assay: cell-based or functional assay

Sequence of CCR5 (P51681 whole entry): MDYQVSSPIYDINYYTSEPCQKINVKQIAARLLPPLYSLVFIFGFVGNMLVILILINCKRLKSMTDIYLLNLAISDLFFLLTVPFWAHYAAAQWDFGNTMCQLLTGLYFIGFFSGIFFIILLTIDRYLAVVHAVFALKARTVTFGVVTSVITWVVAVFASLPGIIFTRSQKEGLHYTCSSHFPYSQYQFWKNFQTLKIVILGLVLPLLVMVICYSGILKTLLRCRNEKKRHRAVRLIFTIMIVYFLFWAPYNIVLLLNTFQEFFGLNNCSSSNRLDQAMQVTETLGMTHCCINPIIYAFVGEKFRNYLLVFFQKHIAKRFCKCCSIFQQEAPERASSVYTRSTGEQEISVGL

aminooxypentane(AOP)-RANTES (from UniProt P13501 24-91) (ligand)
IC50, R5-tropic envelope-mediated cell fusion assay: 3 nM
